Biological target: SpyTag-VP2 (N-terminal SpyTag chimera of the major structural protein VP2 of parvovirus B19) (not stated | parvovirus B19)
Experiment: SEC + other: light scattering (MALS, Zetasizer Ultra); different amounts of SpyTag-VP2 (2.5-60 mL of 0.142 mg/mL) loaded on a 5-mL HisTrap HP column; peak run on Sephacryl 300-HR in 2 M GdnHCl buffer; fractions of 18-28 nm pooled, BCA

SpyTag-VP2 (N-terminal SpyTag chimera of the major structural protein VP2 of parvovirus B19)
percent of the loaded protein recovered as VLPs: 95%
